From publication doi:10.1101/2020.06.17.153486 (bioRxiv, 2020)

Target: SARS-CoV-2 spike trimer (S trimer), soluble ectodomain (SARS-CoV-2, Wuhan-Hu-1 type, stabilised)
Experiment: cryo-EM structure

B1: 2-4 Fab (Fab, V domains shown)
VH: QVQLVQSGAEVKKPGASVKVSCKASGYTFTGYYMHWVRQAPGQGLEWMGWINPNSGGTNYTQMFQGRVTMTRDTSISTAYMEVSRLRSDDTAVYYCARDRSWAVVYYYMDVWGKGTTVTVSS
VL: QSALTQPPSASGSPGQSVTISCTGTSSDVGGYNYVSWYQQHPGKAPKLMIYEVSKRPSGVPDRFSGSKSGNTASLTVSGLQAEDEADYYCSSYAGSNNLVFGGGTKLTVL
stoichiometry N: 3 Fab per trimer
